Patent US12667624B2, “GIP derivative, long-acting conjugate thereof, and pharmaceutical composition comprising same” (HANMI PHARM. CO., LTD., priority 2020, dated 2026)
Non-standard residues stand in square brackets, D forms with d. No end group written: not given here. Aib = CC(C)(N)C(=O)O

Key:
[1] = biological target: T1, human GIP receptor (Homo sapiens, UniProt P48546); assay: In vitro activity of long-acting GIP conjugates: cAMP accumulation in CHO cells expressing human GIP receptor; type: cell-based; settings: relative potency from cAMP EC50, CHO cells expressing human GIP receptor; PEG-immunoglobulin Fc conjugates
T1 construct: expressed in transfected cells; host or cells: CHO (Chinese hamster ovary)
T1 sequence (P48546 22-466): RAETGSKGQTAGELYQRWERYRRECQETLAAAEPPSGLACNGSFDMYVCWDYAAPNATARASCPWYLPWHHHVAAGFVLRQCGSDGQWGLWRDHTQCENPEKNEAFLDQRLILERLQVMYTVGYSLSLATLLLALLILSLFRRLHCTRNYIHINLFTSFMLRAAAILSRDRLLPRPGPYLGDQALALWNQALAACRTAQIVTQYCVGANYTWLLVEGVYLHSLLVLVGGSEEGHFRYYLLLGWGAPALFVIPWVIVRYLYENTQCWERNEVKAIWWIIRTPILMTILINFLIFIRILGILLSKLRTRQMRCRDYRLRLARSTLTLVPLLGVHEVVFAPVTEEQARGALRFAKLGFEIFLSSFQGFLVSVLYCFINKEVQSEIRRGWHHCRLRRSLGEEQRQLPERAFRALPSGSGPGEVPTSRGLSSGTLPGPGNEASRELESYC
Procedure: To measure the activity of the long-acting GIP conjugates prepared in Example 3, a method of measuring cell activity in vitro using a cell line transformed with the GIP receptor was used in the same manner as in Example 2.
In detail, to measure the activity of the long-acting GIP derivatives in the human GIP receptors, human GIP was serially diluted from 16 nM to 0.000015 nM by 4 folds, and the long-acting GIP derivatives prepared in Example 1 were each serially diluted from 50 nM to 0.000048 nM by 4 folds. The culture medium was removed from the cultured CHO cells where the human GIP receptors were expressed, 5 μl of each of the serially diluted materials was added to the cells, and then, 5 μl of buffer containing cAMP antibody was added thereto, followed by incubation at room temperature for 15 minutes. Next, the cells were lysed by adding 10 μl of detection mix containing cell lysis buffer, and then allowed for a reaction at room temperature for 90 minutes. The cell lysate obtained by the completion of the reaction was applied to the LANCE cAMP kit (PerkinElmer, USA) to calculate the EC50 value through the accumulated cAMP to be compared with each other.

[2] = tested on: THP-1 cell line; assay: Expression of inflammation-related genes in LPS-treated THP-1 cell line (real-time PCR); type: cell-based, human; settings: THP-1, LPS 1 μg/mL; native GIP 10 μM, long-acting GIP derivative 1 or 10 μM; FIG. 2A
Excerpt: To confirm the in vitro anti-inflammatory effect of the long-acting GIP derivative conjugate on vasculitis, a human monocyte/macrophage cell line, THP-1 cell line, was used. A macrophage is known to secrete cytokines and chemokines in the early stage of infection in vasculitis-infected tissue, induce the progress of inflammation by utilizing other immune cells, and form giant cells. Therefore, identification of the anti-inflammatory effect in macrophages is referred to as an appropriate in vitro system for evaluating the efficacy on vasculitis.
The THP-1 cell line was cultured in RPMI 1640 medium supplemented with 10% fetal bovine serum (FBS), 100 μg/mL of streptomycin, 100 U/mL of penicillin, and […] of β-mercaptoethanol, under conditions of a temperature of 37° C. and 5% carbon dioxide. […] For use as the long-acting GIP derivative, the long-acting GIP conjugate (SEQ ID NO: 17) prepared in Example 3 was used.
RNA was isolated from the completely treated THP-1 cell line by using the RNeasy Mini Kit (Qiagen, US), and then cDNA was synthesized by using the iScript™ cDNA Synthesis Kit (Bio-rad, U.S.). The synthesized cDNA was referred to confirm the expression levels of inflammation-related genes by using the QuantStudio 6 Flex Real-Time PCR System (Applied Biosystems, U.S.). Here, the Delta Ct method was used, and beta-actin was used as a housekeeping gene. […]

[3] = tested on: THP-1 cell line; assay: TNF-α concentration in medium of LPS-treated THP-1 cell line (ELISA); type: cell-based, human; settings: THP-1, LPS 0.1 pg/mL; native GIP 1 μM, long-acting GIP derivative 0.1 μM or 1 μM; FIG. 2B
Excerpt: Here, the medium was quantified by using Human TNF alpha ELISA Kit (Abcam, US).

| Substance | In vitro activity of long-acting GIP derivative compared to human native GIP in human GIP receptor (%) [1] [%] | expression levels of inflammation-related genes IL-6, IL-12, IL-1β and TNF-α [2] | concentration of TNF-α in the medium [3] |
| --- | --- | --- | --- |
| YAibEGT FISDYSIALEKQAQQDFVNWLLAGGPSSGAPPPSC (Y[Aib]EGTFISDYSIALEKQAQQDFVNWLLAGGPSSGAPPPSC) [SEQ ID NO: 17, GIP derivative peptide] | 153.2 | – | – |
| YAibEGT FISDYSIAMDAIAQQDFVNWLLAQKGKKNDWKHNITQC (Y[Aib]EGTFISDYSIAMDAIAQQDFVNWLLAQKGKKNDWKHNITQC) [SEQ ID NO: 11, GIP derivative peptide] | 84.8 | – | – |
| YAibEGT FISDY SIAibLD KQAAAib EFVNW LLAibGG PSSGA PPPSC (Y[Aib]EGTFISDYSI[Aib]LDKQAA[Aib]EFVNWLL[Aib]GGPSSGAPPPSC) [SEQ ID NO: 21, GIP derivative peptide] | 148.5 | – | – |
| YAibEGT FISDY SIAibLD KQAAAib EFVNW LLAibGH PSSGA PPPSC (Y[Aib]EGTFISDYSI[Aib]LDKQAA[Aib]EFVNWLL[Aib]GHPSSGAPPPSC) [SEQ ID NO: 24, GIP derivative peptide] | 123.3 | – | – |
| glucose-dependent insulinotropic polypeptide [native GIP] | – | decreased | decreased |
